# ± gives the standard deviation.
# Assay: protein stability index of a GFP-peptide fusion (GPS, HEK-293T) (PSI 1-6); higher = more stable
# [1] = treatment: DMSO, c terminus: a fixed tail appended
# [2] = treatment: MLN4924 1 uM, 8 h, c terminus: a fixed tail appended
# [3] = treatment: DMSO, c terminus: native
# [4] = treatment: MLN4924 1 uM, 8 h, c terminus: native
# 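Also: 24-mer peptide tiles fused after GFP, lentivirally expressed, FACS-sorted into six equal bins by GFP/DsRed ratio, decoded by Illumina sequencing, PSI is the read-weighted mean bin number.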
Sequence,protein stability index [1],protein stability index [2],protein stability index [3],protein stability index [4]
LWVEERALLEGEKALWEDKTSLWE [CCDC70],2.6 ± 0.036,3 ± 0.11,,
GPDHRLRLWRLFQTLDVNRDGGLC [SLC25A25],2.29 ± 0.11,2.23 ± 0.22,,
PPMTQAQAVSAPGILNRPPAPTAT [ZNF207],5.01 ± 0.18,5.09 ± 0.21,,
RPGETGMDVTSRCTLGDPNKLPEG [KLHL20],5.16 ± 0.31,5.11 ± 0.14,,
DKCMVCGGDGSGCSKQSGSFRKFR [ADAMTS4],2.14 ± 0.11,3.25 ± 0.85,,
KSYNICFELEDSNEIFTQLYRTLF [PDS5B],3.05 ± 0.83,2.87 ± 0.61,,
ETQTLTGWSKGFIGMHREMQVNPI [RHOBTB1],2.89 ± 0.26,3.12 ± 0.23,,
MPVICGPEENYPSLQMSSAEMPHT [NANOGP8],4.47 ± 0.32,4.39 ± 0.24,,
PVLGRRAVGGRLRLVPGGQRPADV [HAGHL],3.64 ± 0.17,3.88 ± 0.36,,
CPLCTSDRGSCVSTTEGIQLAKEL [RHOBTB3],3.23 ± 0.29,3.58 ± 0.38,,
QGQYETIERLRSLSPKIMQEAFLV [TBC1D10A],2.32 ± 0.21,2.22 ± 0.27,,
NKPREHIIDCGDIVWSLAFGSSVP [WSB1],2.17 ± 0.38,2.07 ± 0.2,,
PTPVGAVQQDPALSSNREAHQHRD [CSNK1G3],5.37 ± 0.21,5.41 ± 0.19,,
AGRPSLLRHDEVRTYFHEFGHVMH [NLN],2.48 ± 0.13,2.45 ± 0.47,,
APMVAGALARLGTVTVISPLELMR [SLC25A39],2.35 ± 0.22,2.41 ± 0.32,,
TNTLTRIAENGVSERDSEAAKQNH [EHMT1],5.41 ± 0.18,5.26 ± 0.29,,
MVESRYALLIVDSATALYRTDYSG [RAD51],3 ± 0.79,2.86 ± 0.71,,
PQTPEPVEGRKHVDVQTELYLEEI [RSPH3],3.78 ± 0.24,4 ± 0.58,,
WGFVHPRLLSVPELCHHVAEVWVS [RETREG3],3.04 ± 0.64,2.63 ± 0.57,,
EGLGQSLGNFKDDLLNVCMRHVEK [TRIM29],3.62 ± 0.27,3.78 ± 0.27,,
AIPIKSWFSDPSDTALLNLLPMLD [CTDNEP1],2.33 ± 0.16,2.47 ± 0.3,,
THLPKADIFALALTVVCAAGAEPL [WEE1],3.6 ± 0.35,3.31 ± 0.26,,
MNSLVSWQLLLFLCATHFGEPLEK [KISS1],3.18 ± 0.67,3.07 ± 0.51,,

Sequence,protein stability index [1],protein stability index [2],protein stability index [3],protein stability index [4]
WVDITDVPPGDYLFQVVINPNFEV [LOXL2],2.94 ± 0.71,2.91 ± 0.98,,
AEDYLTWKEWGFTGVQEVLSALLR [SPAG8],2.28 ± 0.33,2.19 ± 0.4,,
FIVDILQFLDIGPDVTRVGLLQYG [MATN2],3.11 ± 0.51,2.94 ± 0.82,,
ERSSFYSCAGGRLFQQSCPTGLVF [CHIT1],1.99 ± 0.15,2.13 ± 0.18,,
QEQLLECNKLCGRGQSRQLSPET [SLC2A12],,,4.21 ± 0.43,4.61 ± 0.46
QAGDKDLDGQLDFEEFVHYLQDHE [SLC25A25],5.19 ± 0.23,4.96 ± 0.23,,
ESLREELICLKKNHEEEVNTLRSQ [KRT34],4.91 ± 0.23,5.04 ± 0.23,,
TETEATNSLITAPGEFSDASMSPD [SMAD6],5.42 ± 0.2,5.28 ± 0.37,,
PQPPDAPQLVSSAREGSSEPWLPL [PLEKHN1],4.36 ± 0.25,4.56 ± 0.1,,
RSVRRERLKEMKLLRDQFVKALED [FAM9B],3.22 ± 0.27,3.05 ± 0.57,,
AEAEALYSAYIRRCACAASSDESP [TTC32],3.25 ± 0.28,3.42 ± 0.3,,
DWYQRQRPSEIKDYSPYFKTIEDL [KRT16],2.74 ± 0.28,2.9 ± 0.32,,
GQPAPVSMVPPSPAMAASKALGSD [SNAP91],5.02 ± 0.32,5.01 ± 0.18,,
PQGPPASPSCPEEALAATWEQPWA [PXN],4.15 ± 0.39,3.96 ± 0.27,,
KELILDKVYTHPKWNTQTKARSYS [ZC2HC1C],2.91 ± 0.44,3.44 ± 0.46,,
YQYIQSRFYRSPEVLLGTPYDLAI [DYRK1B],2.18 ± 0.41,2.29 ± 0.35,,
VQLIQDTRIHILPSMNPDGYEVAA [CPN1],2.55 ± 0.23,2.57 ± 0.33,,
KQIAVAITEALRPAGVGVVVEATH [GCH1],2.37 ± 0.28,2.42 ± 0.25,,
RLIKELAKYEYMEEQVILTEKDLL [SAT1],2.34 ± 0.34,2.18 ± 0.25,,
LRVRELQRKVDGIQKAYDELRLQS [CCDC89],3.16 ± 0.13,3.42 ± 0.39,,
LLCAVCYDPFRDAVTLRCGHNFCR [TRIM35],2.38 ± 0.23,2.46 ± 0.29,,
YILELDDGNGGQFREVYVGKETMC [TRIM9],2.28 ± 0.11,2.29 ± 0.16,,
LLKTEALKRQAQEEAKGALLGTSG [DAPK3],4.89 ± 0.15,4.47 ± 0.12,,

Sequence,protein stability index [1],protein stability index [2],protein stability index [3],protein stability index [4]
KLKPLGEAEREFILNLKKKECKDR [NLN],4.17 ± 0.23,4.45 ± 0.2,,
LSGVSCFVMFLCLADYLVPILAPR [ARL6IP1],3.5 ± 0.071,3.37 ± 0.44,,
RRALAPPSAGFRCCAAPGPHVALA [ANKRD9],1.98 ± 0.47,2.25 ± 0.31,,
LEIYQSSQDEPIALDKQHSRDSAA [NOL4L],4.89 ± 0.24,5.16 ± 0.12,,
LVLLRDGRTLIGFLRSIDQFANLV [LSM1],2.23 ± 0.52,2.47 ± 0.47,,
CYLELFPAHLYFQAHGSEGLTFQG [PLEKHN1],2.89 ± 0.53,2.31 ± 0.26,,
TVPSAATSQPTPSQHSAHTSSQP [CCDC6],,,5.42 ± 0.23,5.33 ± 0.15
RAFNTDHQTQLLYQASAMMVESRY [RAD51],2.42 ± 0.35,2.68 ± 0.22,,
ALKMTWHVHCFTCAACKTPIRNRA [PDLIM7],2.5 ± 0.51,2.3 ± 0.58,,
RFPLMTPQELINYVQTVDFMRTDN [KLHL13],2.71 ± 0.26,2.83 ± 0.34,,
SEAQLTDAETSKLIYDFIEDQGGL [WAS],4.53 ± 0.38,4.62 ± 0.23,,
LLGATKRSMVFKDVLLLGNDYIVP [HNF4A],2.28 ± 0.34,2.3 ± 0.11,,
PPAELKAEPGFEPADCKRKEEAGA [CEBPB],5.55 ± 0.23,5.68 ± 0.13,,
EKNQVQLGKLEATIKSLSAELLKA [SASS6],2.6 ± 0.45,2.54 ± 0.42,,
LALRGRLQLEACGMRRKSLLTRKV [GOLPH3],2.26 ± 0.13,2.41 ± 0.21,,
RREKAVHRLRVQQAALRAARLRHQ [NOP53],3.6 ± 0.41,3.71 ± 0.34,,
YVATEAILIALVGATPSYHWDLAE [SLC22A15],3.01 ± 0.39,3.27 ± 0.31,,
ASGHEPGGSAVCASRVKLQHLPAQ [PLEKHN1],4.11 ± 0.27,3.95 ± 0.14,,
PDHFDTAILFTRQDLCGVSTCDTL [ADAMTS4],2.83 ± 0.21,2.94 ± 0.4,,
LLTSPRAINNLVLQGCSSIGLRLV [KLHL14],2.92 ± 0.53,2.74 ± 0.69,,
SPLLSQETAGQKPLSVHRPPTSGC [TSPAN10],4.4 ± 0.17,4.46 ± 0.18,,
PGEDENPEKASELSQVELQAAPGA [TRIM55],5.56 ± 0.27,5.72 ± 0.2,,
ILQDQEHIFAHRIYLATSSSKFYD [RHOBTB1],2.15 ± 0.35,2.4 ± 0.16,,

Sequence,protein stability index [1],protein stability index [2],protein stability index [3],protein stability index [4]
EIKDVLVWTNDQVVHWVQSIGLRD [PPFIA4],,2.25 ± 0.37,,
DGHIDINEFLEAFRLVEKSCPEGD [PPEF2],4.67 ± 0.37,4.71 ± 0.17,,
AQRKEERWDMADNEQVLTTEHEKK [YJU2B],5.57 ± 0.21,5.6 ± 0.12,,
AKNFHVKAVMKTSVLLSWEIPENY [PTPRD],2.89 ± 0.27,,,
EESEEERGLEPGKGRHHRGRGGEP [CHGB],5.59 ± 0.17,5.51 ± 0.25,,
QRLEEETRKREDAEHNLVLFRKDV [PRPH],5.12 ± 0.18,5.13 ± 0.17,,
FAIPVGSGLGYIAGSKVKDMAGDW [SPNS1],2.35 ± 0.28,2.21 ± 0.44,,
ICTNLCEALQNFFSLACSLMGPSR [M1AP],2.33 ± 0.28,2.26 ± 0.1,,
NWPKNSNGVTQKASAPTYPSLYSS [NANOGP8],3.53 ± 0.21,3.65 ± 0.25,,
FIARLQGSILQFNPEVGIFVSIAQ [SMG5],2.77 ± 0.59,2.64 ± 0.45,,
MQKEDNQVDVRFFGHHHQRAWIPS [ZMYND11],3.05 ± 0.12,3.18 ± 0.32,,
EAALNSKDAALATALGDKKSLEGD [LMNB1],5.52 ± 0.25,5.5 ± 0.078,,
ANVTLSLDTVEEVLSVSKILHIPQ [KLHL14],2.31 ± 0.43,2.21 ± 0.38,,
TSGQVVAVKKFVESEDDPVVKKIA [CDKL4],4.66 ± 0.06,4.82 ± 0.35,,
PPPARGRGAPPPPPSRAPTAAPPP [WASL],5.26 ± 0.11,5.14 ± 0.21,,
DGVKESSESTNTTIEDEDTKVRKQ [CAMK2A],5.65 ± 0.13,5.59 ± 0.29,,
NLPKFCHECGTKYPVEWAKFCCEC [ZC2HC1A],5.275 ± 0.001,5.557 ± 0.049,,
LRRRIENGAKELWFFLQSELKKLK [FUT8],2.85 ± 0.43,2.52 ± 0.4,,
QLDMFYRNWALKESFIKAIGVGLG [AASDHPPT],2.78 ± 0.1,2.92 ± 0.58,,
GGAVVANYPYDKSFEHRVRGVRRT [CPN1],4.25 ± 0.29,4.29 ± 0.15,,
